# Biological target: ECOR31 mCpol (minimal CRISPR polymerase) with residual ENLYFQ cleavage site (E. coli ECOR31)
# Assay: SEC; HiLoad 16/600 Superdex 200 pg, 20 mM Tris-HCl pH 8.0, 500 mM KCl, 10% glycerol, 1 mM TCEP; elution compared with a molecular weight standard
substance,measurement,value
ECOR31 mCpol (minimal CRISPR polymerase) with residual ENLYFQ cleavage site (enzyme),stoichiometry N,2

# From publication PMC12657230
